Reference: patent US20170362330A1

How the values were obtained:
[1] = molecular target: human CD46 (human) (UniProt P15529); assay: FACS on Du-145 cells, 4 °C overnight, MFI curve fit
[2] = molecular target: human CD46 (human), P15529; assay: cell-based or functional assay
[3] = molecular target: human CD46 (human) (UniProt P15529); assay: FACS on CHO cells transfected with human CD46, 4 °C overnight, MFI curve fit
[4] = molecular target: human CD46 (human) (UniProt P15529); assay: FACS on CHO-huCD46 cells, 4 C overnight, MFI against antibody concentration

Sequence of human CD46 (human) (P15529 35-392): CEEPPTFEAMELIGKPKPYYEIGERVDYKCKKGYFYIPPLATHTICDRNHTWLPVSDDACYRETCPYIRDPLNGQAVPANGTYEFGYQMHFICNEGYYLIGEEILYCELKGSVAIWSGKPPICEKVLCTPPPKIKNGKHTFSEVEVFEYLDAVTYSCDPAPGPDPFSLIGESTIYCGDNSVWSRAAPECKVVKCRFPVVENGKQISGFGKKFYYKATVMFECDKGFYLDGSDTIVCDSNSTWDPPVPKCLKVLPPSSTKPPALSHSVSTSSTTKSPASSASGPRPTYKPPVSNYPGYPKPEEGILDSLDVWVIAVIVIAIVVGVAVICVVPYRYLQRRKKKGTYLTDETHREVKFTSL
Sequence of human CD46 (human), P15529 (P15529 35-392): as above

Row | Kd [1] | Kd [3] | EC50 (read off the curve) [4] | Binder | EC50 of cell killing, LNCaP C4-2B cells with prior exposure to abiraterone (CD46 upregulated), 96 hours [2] | EC50 of cell killing, LNCaP C4-2B cells without prior exposure to abiraterone, 96 hours [2] | cytotoxic activity on H660 cells in vitro (Calcein AM viability, 7 days) [2] | fold drop of killing EC50 on H660 cells after enzalutamide treatment [2]
1 | 0.043 nM | – | – | YS12 (antibody, V domains shown) VH: QVQLVESGGGVVQPGRSLRLSCAASGFTFSTYGMHWVRQAPGKGLEWLSFISYDGDEKYYADSVKGRFTISRDNSKNTLYLQMNSLRAEDTAVYWCAKASGYGMGILDYWGQGTLVTVSS VL: SSELTQDPAVSVALGQTVRITCQGDSLRSYYVSWFQQKPGQAPVFVMYGQNNRPSGISERFSGSSSGNTASLIITGAQAEDEADYYCHSRDSSGTHLRVFGGGTKLTVL | – | – | – | –
2 | – | – | – | YS5-mcvcpab-MMAF (protein, here or on the partner: monomethyl auristatin F (MMAF) conjugated via the MC-vc-PAB linker, on average about 3 drugs per antibody molecule; attachment residues not stated) VH: QVQLVQSGGGVVQPGRSLRLACAASGLTVNNYAMHWVRQAPGKGLEWVAVISYDGNNKYYADSVKGRFTISRDNSKNTLYLQMNSLRAEDTAVYYCAKGGGYFDLWGRGTLVTVSS VL: QSVLTQPPSVSGAPGQRVTISCTGSSSNIGAGYDVHWYQQLPGTAPKLLIYGNNNRPSGVPDRFSGSKSGTSASLAITGLQAEDEADYYCSSYTSGTWLFGGGTKLTVL | 0.021 nM | 0.169 nM | < 1 nM | 4 to 5 fold
3 | 2.19 nM | 0.867 nM | 1 nM | YS5 (antibody, V domains shown) VH: QVQLVQSGGGVVQPGRSLRLACAASGLTVNNYAMHWVRQAPGKGLEWVAVISYDGNNKYYADSVKGRFTISRDNSKNTLYLQMNSLRAEDTAVYYCAKGGGYFDLWGRGTLVTVSS VL: QSVLTQPPSVSGAPGQRVTISCTGSSSNIGAGYDVHWYQQLPGTAPKLLIYGNNNRPSGVPDRFSGSKSGTSASLAITGLQAEDEADYYCSSYTSGTWLFGGGTKLTVL | – | – | – | –
